In US20220411536A1 (NUMAB THERAPEUTICS, published 2022):

Columns and labels:
[1] = biological target: CD137 on transgenic NF-kB Jurkat reporter cells (Homo sapiens (Human), UniProt Q07011 24-255); assay: cell-based or functional assay
[2] = biological target: T1, human PD-L1 expressed on cells (CHO-PD-L1, HCC1954, HCC827) (human, UniProt Q9NZQ7 19-290); assay: flow cytometry with human SA, inhibition of PD-1 binding to HCC1954 cells
T1 construct: whole, on cells; also called hPD-L1; PD-L1 expressing cells

[3] = biological target: T1, human PD-L1 expressed on cells …; assay: cell-based or functional assay
[4] = biological target: T1, human PD-L1 expressed on cells …; assay: flow cytometry with human SA, inhibition of PD-1 binding to HCC827 cells
[5] = biological target: T1, human PD-L1 expressed on cells …; assay: flow cytometry with human SA, inhibition of PD-1 binding to HCC1954 cells; remark: listed apart in the source

Binder	IC50 [4] [µg/mL]	IC50 [5] [µg/mL]	also measured
PRO1992 (multispecific antibody) chain 1: DVVMTQSPSSLSASVGDRVTITCQASQIISSRSAWYQQKPGQPPKLLIYQASKLASGVPSRFSGSGSGTDFTLTISSLQPEDFATYYCQCTYIDSNFGAFGTGTKLTVLGGGGGSGGGGSGGGGSGGGGSEVQLVESGGGLVQPGGSLRLSCAASGFSFSSSYWICWVRQAPGKGLEWVGCVFTGDGTTYYASWAKGRFTISRDNSKNTVYLQMNSLRAEDTATYFCARPVSVYYYGMDLWGQGTLVTVSSGGGGSGGGGSDIQMTQSPSSLSASVGDRVTITCKASQDVSIGVAWYQQKPGKAPKLLIYSASYRYTGVPSRFSGSGSGTDFTLTISSLQPEDFATYYCQQYYIYPYTFGCGTKVTVLGGGSGGSDIQMTQSPSSLSASVGDRVTITCQASQSINDYLAWYQQKPGKAPKLLIYKASTLASGVPSRFSGSGSGTDFTLTISSLQPEDFATYYCQAAYIITDIDNVFGTGTKVTVLG chain 2: DIQMTQSPSSLSASVGDRVTITCQASQSISNRLAWYQQKPGKAPKLLIYSASTLASGVPSRFSGSGSGTDFTLTISSLQPEDFATYYCQSTYYGNDGNAFGCGTKVTVLGGGGGSGGGGSGGGGSGGGGSEVQLVESGGGLVQPGGSLRLSCAASGFSFSANYYPCWVRQAPGKCLEWIGCIYGGSSDITYDANWTKGRFTISRDNSKNTVYLQMNSLRAEDTAVYYCARSAWYSGWGGDLWGQGTLVTVSSGGGGSGGGGSQVQLQESGPGLVKPSETLSLTCKVSGFSFSSGYDMCWIRQPPGKGLEWIGCVVAGSVDITYYASWAKGRVTISVDSSKNQFSLKLSSVTAADTAVYYCARKDAYSDAFNLWGQGTLVTVSSGGGSGGGSEVQLVESGGGLVQPGGSLRLSCAASGFTFTDYTMDWVRQAPGKCLEWVADVNPNSGGSIYNQRFKGRFTLSVDRSKNTLYLQMNSLRAEDTAVYYCARNLGPSFYFDYWGQGTLVTVSS	–	–	EC50, NFkB reporter gene assay, HCC827 cells [1]: 0.253 nM; EC50, NFkB reporter gene assay, HCC1954 cells [1]: 0.0824 nM; IC50 [2]: 0.592 µg/mL
PRO1494 (scFv, V domains shown) VH: QVQLQESGPGLVKPSETLSLTCKVSGFSFSSGYDMCWIRQPPGKGLEWIGCVVAGSVDITYYASWAKGRVTISVDSSKNQFSLKLSSVTAADTAVYYCARKDAASDAFNLWGQGTLVTVSS VL: DIQMTQSPSSLSASVGDRVTITCQASQSINDYLAWYQQKPGKAPKLLIYKASTLASGVPSRFSGSGSGTDFTLTISSLQPEDFATYYCQAGYIITDIDNVFGTGTKVTVLG	–	–	IC50, neutralization of PD-L1 in NF-AT potency assay [3]: 36.8 µg/mL
PRO1814 (multispecific antibody, also called PR01814) DIQMTQSPSSLSASVGDRVTITCQASQSINDYLAWYQQKPGKAPKLLIYKASTLASGVPSRFSGSGSGTDFTLTISSLQPEDFATYYCQAAYIITDIDNVFGTGTKVTVLGGGGGSEVQLVESGGGLVQPGGSLRLSCAASGFTFTDYTMDWVRQAPGKGLEWVADVNPNSGGSIYNQRFKGRFTLSVDRSKNTLYLQMNSLRAEDTAVYYCARNLGPSFYFDYWGQGTLVTVSSGGGGSGGGGSGGGGSGGGGSDIQMTQSPSSLSASVGDRVTITCKASQDVSIGVAWYQQKPGKAPKLLIYSASYRYTGVPSRFSGSGSGTDFTLTISSLQPEDFATYYCQQYYIYPYTFGTGTKVTVLGGGGGSQVQLQESGPGLVKPSETLSLTCKVSGFSFSSGYDMCWIRQPPGKGLEWIGCVVAGSVDITYYASWAKGRVTISVDSSKNQFSLKLSSVTAADTAVYYCARKDAYSDAFNLWGQGTLVTVSSGGGGSGGGGSIQMTQSPSSLSASVGDRVTITCQSSESVYSNNQLSWYQQKPGQPPKLLIYDASDLASGVPSRFSGSGSGTDFTLTISSLQPEDFATYYCAGGFSSSSDTAFGGGTKLTVLGGGGGSGGGGSGGGGSGGGGSEVQLVESGGGLVQPGGSLRLSCAASGFSLSSNAMGWVRQAPGKGLEYIGIISVGGFTYYASWAKGRFTISRDNSKNTVYLQMNSLRAEDTATYFCARDRHGGDSSGAFYLWGQGTLVTVSS	53.8	0.0525	–
PRO1852 (multispecific antibody) DIQMTQSPSSLSASVGDRVTITCQASQSINDYLAWYQQKPGKAPKLLIYKASTLASGVPSRFSGSGSGTDFTLTISSLQPEDFATYYCQAAYIITDIDNVFGTGTKVTVLGGGGGSEVQLVESGGGLVQPGGSLRLSCAASGFTFTDYTMDWVRQAPGKCLEWVADVNPNSGGSIYNQRFKGRFTLSVDRSKNTLYLQMNSLRAEDTAVYYCARNLGPSFYFDYWGQGTLVTVSSGGGGSGGGGSGGGGSGGGGSDIQMTQSPSSLSASVGDRVTITCKASQDVSIGVAWYQQKPGKAPKLLIYSASYRYTGVPSRFSGSGSGTDFTLTISSLQPEDFATYYCQQYYIYPYTFGCGTKVTVLGGGGGSQVQLQESGPGLVKPSETLSLTCKVSGFSFSSGYDMCWIRQPPGKGLEWIGCVVAGSVDITYYASWAKGRVTISVDSSKNQFSLKLSSVTAADTAVYYCARKDAYSDAFNLWGQGTLVTVSSGGGGSGGGGSIQMTQSPSSLSASVGDRVTITCQSSESVYSNNQLSWYQQKPGQPPKLLIYDASDLASGVPSRFSGSGSGTDFTLTISSLQPEDFATYYCAGGFSSSSDTAFGGGTKLTVLGGGGGSGGGGSGGGGSGGGGSEVQLVESGGGLVQPGGSLRLSCAASGFSLSSNAMGWVRQAPGKGLEYIGIISVGGFTYYASWAKGRFTISRDNSKNTVYLQMNSLRAEDTATYFCARDRHGGDSSGAFYLWGQGTLVTVSS	16.8	0.0556	–

More lines, main results first:

IC50 [4] [µg/mL]	IC50 [5] [µg/mL]	Binder	also measured
88.2	0.0695	PRO1853 (multispecific antibody) DIQMTQSPSSLSASVGDRVTITCQASQSINDYLAWYQQKPGKAPKLLIYKASTLASGVPSRFSGSGSGTDFTLTISSLQPEDFATYYCQAGYIITDIDNVFGTGTKVTVLGGGGGSEVQLVESGGGLVQPGGSLRLSCAASGFTFTDYTMDWVRQAPGKGLEWVADVNPNSGGSIYNQRFKGRFTLSVDRSKNTLYLQMNSLRAEDTAVYYCARNLGPSFYFDYWGQGTLVTVSSGGGGSGGGGSGGGGSGGGGSDIQMTQSPSSLSASVGDRVTITCKASQDVSIGVAWYQQKPGKAPKLLIYSASYRYTGVPSRFSGSGSGTDFTLTISSLQPEDFATYYCQQYYIYPYTFGTGTKVTVLGGGGGSQVQLQESGPGLVKPSETLSLTCKVSGFSFSSGYDMCWIRQPPGKGLEWIGCVVAGSVDITYYASWAKGRVTISVDSSKNQFSLKLSSVTAADTAVYYCARKDAASDAFNLWGQGTLVTVSSGGGGSGGGGSIQMTQSPSSLSASVGDRVTITCQSSESVYSNNQLSWYQQKPGQPPKLLIYDASDLASGVPSRFSGSGSGTDFTLTISSLQPEDFATYYCAGGFSSSSDTAFGGGTKLTVLGGGGGSGGGGSGGGGSGGGGSEVQLVESGGGLVQPGGSLRLSCAASGFSLSSNAMGWVRQAPGKGLEYIGIISVGGFTYYASWAKGRFTISRDNSKNTVYLQMNSLRAEDTATYFCARDRHGGDSSGAFYLWGQGTLVTVSS	–
53.5	0.0561	PRO1854 (multispecific antibody) DIQMTQSPSSLSASVGDRVTITCQASQSINDYLAWYQQKPGKAPKLLIYKASTLASGVPSRFSGSGSGTDFTLTISSLQPEDFATYYCQAGYIITDIDNVFGTGTKVTVLGGGGGSEVQLVESGGGLVQPGGSLRLSCAASGFTFTDYTMDWVRQAPGKCLEWVADVNPNSGGSIYNQRFKGRFTLSVDRSKNTLYLQMNSLRAEDTAVYYCARNLGPSFYFDYWGQGTLVTVSSGGGGSGGGGSGGGGSGGGGSDIQMTQSPSSLSASVGDRVTITCKASQDVSIGVAWYQQKPGKAPKLLIYSASYRYTGVPSRFSGSGSGTDFTLTISSLQPEDFATYYCQQYYIYPYTFGCGTKVTVLGGGGGSQVQLQESGPGLVKPSETLSLTCKVSGFSFSSGYDMCWIRQPPGKGLEWIGCVVAGSVDITYYASWAKGRVTISVDSSKNQFSLKLSSVTAADTAVYYCARKDAASDAFNLWGQGTLVTVSSGGGGSGGGGSIQMTQSPSSLSASVGDRVTITCQSSESVYSNNQLSWYQQKPGQPPKLLIYDASDLASGVPSRFSGSGSGTDFTLTISSLQPEDFATYYCAGGFSSSSDTAFGGGTKLTVLGGGGGSGGGGSGGGGSGGGGSEVQLVESGGGLVQPGGSLRLSCAASGFSLSSNAMGWVRQAPGKGLEYIGIISVGGFTYYASWAKGRFTISRDNSKNTVYLQMNSLRAEDTATYFCARDRHGGDSSGAFYLWGQGTLVTVSS	–
